Data: patent publication US20040052816A1 (Pfizer, published 2004)

Biological target: the molecule itself
Experiment: self-association: retained by a 100,000 MW cutoff membrane in diafiltration

B1: recombinant 20 kDa surface associated protein from S. pneumoniae (Pneumo Protective Protein 1) (other)
chain: MNEVKKMVELKKEAVKDVTSLTKAAPVALAKTKEVLNQAVADLYVAHVALHQVHWYMHGRGFLVWHPKMDEYMEALDGQLDEISERLITLGGSPFSTLTEFLQNSEIEEEAGEYRNVEESLERVLVIYRYLSELFQKGLDVTDEEGDDVTNGIFAGAKTETDKTIWMLAAELGQAPGL
notes: also called r20 kDa; r20kDa
B1: binds.
